Test: soluble on expression in E. coli; label from the status in PepcDB or PDB records

Sequence | soluble on expression in E. coli
MGSSHHHHHHSSGLVPRGSHADYEVVHDTFEVNFDGWCNLGVDTYLTAVENEGNNGTRGMMVINRSSASDGAYSEKGFYLDGGVEYKYSVFVKHNGTGTETFKLSVSYLDSETEEENKEVIATKDVVAGEWTEISAKYKAPKTAVNITLSITTDSTVDFIFDDVTITRKGMAEANTVYAANAVLKDMYANYFRVGSVLNSGTVNNSSIKALILREFNSITCENEMKPDATLVQSGSTNTNIRVSLNRAASILNFCAQNNIAVRGHTLVWHSQTPQWFFKDNFQDNGNWVSQSVMDQRLESYIKNMFAEIQRQYPSLNLYAYDVVNAAVSDDANRTRYYGGAREPGYGNGRSPWVQIYGDNKFIEKAFTYARKYAPANCKLYYNDYNEYWDHKRDCIASICANLYNKGLLDGVGMQSHINADMNGFSGIQNYKAALQKYINIGCDVQITELDISTENGKFSLQQQADKYKAVFQAAVDINRTSSKGKVTAVCVWGPNDANTWLGSQNAPLLFNANNQPKPAYNAVASIIPQSEWGDGNNPA | soluble
MNSPLDVKDLIDLGRDPVVVFNPPSIGTPDRIERYHAALEWLIGRERPFVLVTRADGDEASESHEDRKSRAVWFKNNLMALAQVCRGFVYVEQDEARRAAWQVRAEGMAKTFPVPMIIAGDMEAAITQALDLVKASRDPAPGGSPHA | not soluble
MGSDKIHHHHHHMTPTYDTLIIGAGIAGASLGYRLAGQQRVLLVERESQPGYHSTGRSAAMFMEAYGTPQIQALTRASRAFYEAPPQGFCEHPLLEPRGCLYVASLEQRELLEQTFAQNLANGTEVTLLDRDAALALIPSLRGETLAGAVLEPGAMDLDVHALHQGFLRGYRTAGGELRCNAELIQACYLDDVWQVELADGSRLQARCLVNAAGAWADRVAEQCGVARIGLQPCRRSAFTFPGPAEQDFTRWPAVIGVDESFYFKPDAGQLLGSPANADPVEPQDAAPEEFDVALGIYNIEAMTTLAIRRPSHTWAGLRSFVADGDLVIGFDAHAPAFFWLAAQGGYGIQSAAGASRLAADLLLGQPLCASLVSQGVAPERLSPARFQQP | not soluble
MGSDKIHHHHHHMKALVVGACTRPVVNSLKKLNFEVYSVSHYNPVDLNADHKKYTINDKFHGHLADKYSEKELLNLSKEYVDLVDYIFVCSGIFESKTSKTPNWDVVGNSPKRIKNISDKYKTVKKLENLGFNVPVTYLVNNKYQFEKCLSELKSVVVKPISGSGGIGVTNIDFQNTDNLDINYPVLVQERIKSESYSASFIGSNFLCFNKQLINNNIYVGNISPYVLNLKNETIQEFEEVIASLDLLGMNGIDFMLKDGIPYIIEVNPRILGTYETIELSSRYNLSKAILENKPVKPKDCFFKKIVFSDKGSSYSIDKNPFLRDIPQKGTYIEEGEPVVTIIGRNMADVREMECGILRGV | not soluble
MGSDKIHHHHHHMALMTNKTRALLIGGHGKVALLATPMLIDASVQVTSMYRNPDHRSEIEALGATTLERDVTTLSVEDWADLLKDFDVVVWSAGNGGKNGADATYAIDRDAAIASIDGAASLGEKAPRYIMVSYIGSSTHTIDPSASFYPYAESKKAADEHLSSTNLDYLILAPAALTLDEVNGVEVIADTNEAAAGRTTSRVLVAEVITEFVVRDFPQTRVLPFVDGESPVSSIS | not soluble
MGSDKIHHHHHHMFDRSRKGEHALLIQTHSGGPAEEDVLEEFAELAKSAGATVAATLTARIDKPSPSTLIGSGKLEEVKAAAEATGADLVLVNHTLSPGQERNLERYLERRVIDRTGLILDIFAQRARSHEGKLQVELAQLRHMATRLVRGWTHLERQRGGAIGLRGPGETQLETDRRLLQKRVEQLQKRLEKVEVQRTQMRRARMRSELPRIALVGYTNAGKSTLFNALTGADAYAADQLFATLDPTVRRIALPGGSAVLADTVGFVRDLPHELVAAFRSTLSEARDADLLLHIVDAADPLREERIHQVDEVLQAVGAGDLPQLLVFNKIDKIEGAEVRHDAQDGIPDQARRERVWISARDGRGLEELQRALGHRLDLRHITGSLRLPASAGRLRSKLHQLEVIRSEQVDEEGWLLEVDLPYVEAERLAAGEDGAPLRALLPDRREDWET | not soluble
GKVAKPVLLHQSSTEVSSTNQVEVPDTTQSSPVSISSGLNSDPDMVDSPVVTGVSGMAVASVMGSLSQSATVFMSEVTNEAVYTMSPTAGPNHHLLSPDASQGLVLAVSSDGHKFAFPTTGSSESLSMLPTNVSEELVLSTTLDGGRKIPETTMNFDPDCFLNNPKQGQTYGGGGLKAEMVSSNIRHSPPGERSFSFTTVLTKEIKTEDTSFEQQMAKEAYSSSAAAVAASSLTLTAGSSLLPSGGGLSPSTTLEQMDFSAIDSNKDYTSSFSQTGHSPHIHQTPSPSFFLQDASKPLPVEQNTHSSLSDSGGTFVMPTVKTEASSQTSSCSGHVETRIESTSSLHLMQFQANFQAMTAEGEVTMETSQAAEGSEVLLKSGELQACSSEHYLQPETNGVIRSAGGVPILPGNVVQGLYPVAQPSLGNASNMELSLDHFDISFSNQFSDLINDFISVEGGSSTIYGHQLVSGDSTALSQSEDGARAPFTQAEMCLPCCSPQQGSLQLSSSEGGASTMAYMHVAEVVSAASAQGTLGMLQQSGRVFMVTDYSPEWSYPEGGVKVLITGPWQEASNNYSCLFDQISVPASLIQPGVLRCYCPAHDTGLVTLQVAFNNQIISNSVVFEYKARALPTLPSSQHDWLSLDDNQFRMSILERLEQMERRMAEMTGSQQHKQASGGGSSGGGSGSGNGGSQAQCASGTGALGSCFESRVVVVCEKMMSRACWAKSKHLIHSKTFRGMTLLHLAAAQGYATLIQTLIKWRTKHADSIDLELEVDPLNVDHFSCTPLMWACALGHLEAAVVLYKWDRRAISIPDSLGRLPLGIARSRGHVKLAECLEHLQRDEQAQLGQNPRIHCPASEEPSTESWMAQWHSEAISSPEIPKGVTVIASTNPELRRPRSEPSNYYSSESHKDYPAPKKHKLNPEYFQTRQEKLLPTALSLEEPNIRKQSPSSKQSVPETLSPSEGVRDFSRELSPPTPETAAFQASGSQPVGKWNSKDLYIGVSTVQVTGNPKGTSVGKEAAPSQVRPREPMSVLMMANREVVNTELGSYRDSAENEECGQPMDDIQVNMMTLAEHIIEATPDRIKQENFVPMESSGLERTDPATISSTMSWLASYLADADCLPSAAQIRSAYNEPLTPSSNTSLSPVGSPVSEIAFEKPNLPSAADWSEFLSASTSEKVENEFAQLTLSDHEQRELYEAARLVQTAFRKYKGRPLREQQEVAAAVIQRCYRKYKQLTWIALKYALYKKMTQAAILIQSKFRSYYEQKKFQQSRRAAVLIQKYYRSYKKCGKRRQARRTAVIVQQKLRSSLLTKKQDQAARKIMRFLRRCRHSPLVDHRLYKRSERIEKGQGT | soluble
MKPNITWGLQKIQAHGIADNTIYATEGTQIIFTVTSPWIPVFKVNDDVKIALTLTRHEEAWWIINQSTEYCCTVNDQIVEPHHRMRLNEGDLIEWGLSS | not soluble
MEEKQILCVGLVVLDVISLVDKYPKEDSEIRCLSQRWQRGGNASNSCTVLSLLGAPCAFMGSMAPGHVADFLVADFRRRGVDVSQVAWQSKGDTPSSCCIINNSNGNRTIVLHDTSLPDVSATDFEKVDLTQFKWIHIEGRNASEQVKMLQRIDAHNTRQPPEQKIRVSVEVEKPREELFQLFGYGDVVFVSKDVAKHLGFQSAEEALRGLYGRVRKGAVLVCAWAEEGADALGPDGKLLHSDAFPPPRVVDTLGAGDTFNASVIFSLSQGRSVQEALRFGCQVAGKKCGLQGFDGIV | soluble
MGSDKIHHHHHHMDLYFVKFRVTSKLTSEIVQGYFLGKLNQIPEYDFFVIPGRYARKYSVDLNLGFEDFLEDFKAKKESALKEVLEASAITDEFFDFWLIQSRKQNLRLVGSEFFRLVESGDHEALRVFIADLFREWSEKLEVEVVGVPLDYEDVSLEVVKEHFEELSTDEVFKLFQREDLRNLPEVFPVLDPLNGVTIREIDVEERIDFVILNYGNEEFSEKFKRFLKEKFGTENVASLPGKVLSKEIVKTREGTLYLLKVEFEEGIIGKAIVSPNLKIKRGESRVKISDEEWMEKIGEMLKEGEESKQEKLKLRNSPQPVQKTTSSD | not soluble
MNTYVAEIGEIVRSQRRDEEYIEDITERLSRVSKELLGQRTWIRWFPYLKSIASTLYYTSTVVLGNQTLGEEYVHLFESNGLERTVPSIPSRISFVLLHSAFPLISNYLIQKAESTLTHPSTESFLGIPIRKNQKARQSFLDVFFWLRTKLFPQLQRAHIALFYITGAYYSIARRFTGIRFLSASAHSDIPALKVYRFLGYITLIQLAVSIGISLYSFLEQEKFNNKLKKEKKENNGGSDRNLDENSLFHPTFQCSICLENKNPSALFCGHLFCWTCIQEHAVAATSSASTSSARCPQCRLEFQPRDPNNLRLLSTSTHPTIYFTGIQPTGIPHLGNFFGSIEPWTELQNSVDKNILMMLSVVDQHAISLGPLPANELRQNTHQMTASLIACGVDPNRTLLFRQSDVPQIAQISWILGSLQTTSKLARLPQYKEKKERFKKGDIPVGLLTYPLLQAADVLTFKATTVPVGEDQSQHLNLLGGLAYAFNKTYETEIFPIPKQLTRESHARIRSLREPEKKMSKSSGGPRSRIEITDSRSTIIEKCQKAQSDNAGKVTYDKENRLAVSNLLDLYSAVTKTQTSEIDFSNWTTLDLKMNLAEAVDKRLAPIRQKFEELQNTGEVDKVLTENGEKAREIAEKNLEEIRRTIGFL | not soluble
MEKLEALKRLFPGKVDLSESERLRHGKDEGYPEARPVLAVVYPEGVEDVQKALRWAREWGVAVIPFGAGTSLEGHLYPVREAISLDLSRMNRVLEVRPQDFSCVVEPGLTRKALNEALKGTGLFFPVDPGADASLGGMAATNASGTTTVRYGGMRQNVLALQVVLASGEVLELGRGVRKTSSGYDLKDLFIGSEGTLGVITRLTLRLHPLPEHVHTLRVFFPGVEEAAEASYRIMASGLPVARLELLDELAMRALNRYLKAGFPERPALFLEFHASTKEALEAERASALELVREAGALEVEAATTEEERRRQWEARHQAYWALVHLFPGHRFMITDTAVPLSRLPEMVRFAQGLLREMGLTGNILGHVGDGNFHTLIPVLPEDYPKAEAYAERLVEKALELGGTCTAEHGVGLRKRKFLPKEHGPALEWMRRLKALFDPEGLLNPGKVV | soluble
MAKEWGYASHNGPDHWHELFPNAKGENQSPIELHTKDIRHDPSLQPWSVSYDGGSAKTILNNGKTCRVVFDDTYDRSMLRGGPLPGPYRLRQFHLHWGSSDDHGSEHTVDGVKYAAELHLVHWNPKYNTFKEALKQRDGIAVIGIFLKIGHENGEFQIFLDALDKIKTKGKEAPFTKFDPSSLFPASRDYWTYQGSFTTPPCEECIVWLLLKEPMTVSSDQMAKLRSLLSSAENEPPVPLVSNWRPPQPINNRVVRASFKHHHHHH | soluble
MSVIQNIIGRIAVLRGGKYSVEVDVATDEGFGRFTSPIDDNPMLHIAEARRAVSEVDEIIGPELIGFDASEQELIDSYLWEIDGTEDFSHIGANTALAVSTAIAKAAANSRDMPLYSYIGGTFATELPVPVLSFAQDDMFDYYLVVKDLLEVTDIIDATNKIREIVKEINLENLSKASEDVGVELGLEVALGIGMKKEMDIEKVLNLVEDYNVAYIKPIGPPELFLELIAGTHGVFIDGEYLFRTNSVLDRRYYNALSIKPINLGTLTDLYNFVNDVKAEKITPILAEAKYEPADETFPHIALGLRCPAMLISWSSIEKINELNRIAEELGERGRIITFEE | soluble
MRVVAEDLWFPEGPVWVGDGSLLVVEIRRKTLTRIFPDGRKHIVAELGGGPNGAAMGPDGYCYVANNGGFAFRQREDGRWVTSGTPEDYRTGRIERVDIETGKVEVLYDRIDGRNIRGPNDLVIDAAGGIWFTDPGKTRHRDWDRGSICYATIDGSHIEEKVFPIHKPNGIGLSPDGRTLYVAETETARLWAWDLAGPGRLAAPAAASPASPHGSRLAYASPVYQRFDSLAVQADGAVAIGTLDRGGITTVRPDGSASFVPVAGDTHITNLCFGGEGMRKAYVTQSYAGRLVEIDWASPGLRLFEILEHHHHHH | not soluble
